The data set concerns the target T1, T-box 5 (TBX5) (Homo sapiens, UniProt Q99593 1-518).
T1 sequence: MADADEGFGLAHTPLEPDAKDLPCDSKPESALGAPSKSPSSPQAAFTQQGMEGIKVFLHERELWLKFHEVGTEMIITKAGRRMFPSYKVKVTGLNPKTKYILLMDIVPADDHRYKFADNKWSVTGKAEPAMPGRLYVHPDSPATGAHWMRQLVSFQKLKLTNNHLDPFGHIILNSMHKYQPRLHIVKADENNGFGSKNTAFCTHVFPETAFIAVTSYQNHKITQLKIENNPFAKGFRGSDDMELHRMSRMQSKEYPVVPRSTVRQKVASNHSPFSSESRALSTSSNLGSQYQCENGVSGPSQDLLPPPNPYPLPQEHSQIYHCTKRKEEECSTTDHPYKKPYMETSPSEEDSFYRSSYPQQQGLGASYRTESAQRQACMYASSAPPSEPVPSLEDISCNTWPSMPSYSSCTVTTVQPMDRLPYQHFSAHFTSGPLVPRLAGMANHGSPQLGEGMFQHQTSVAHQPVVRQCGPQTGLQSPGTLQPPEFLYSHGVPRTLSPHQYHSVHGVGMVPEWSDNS
The experiment in a line: EMSA. (In general: In EMSA bound probe runs differently from free probe, usually more slowly.)

Experimental findings from PMC6817700 are described below.

B1: CAGA (rs116461237 G>A) (dsDNA)
DNA 1: GCCCACCTCGGCCTCCCAAAGTTCTAGGATTACAGATGTGAGCTACC
DNA 2: GGTAGCTCACATCTGTAATCCTAGAACTTTGGGAGGCCGAGGTGGGGC
Regarding B1, the binding result is reported as “no binding”.
